Assay results reported in article PMC2949506.

Columns and labels:
[1] = molecular target: HIV-1 Vif (HXB2) L145A (HIV-1 (HXB2)) (UniProt P69723); assay: pull-down
[2] = molecular target: Elongin BC complex (human Elongin B with Elongin C residues 17-122) (human) (UniProt Q15370); assay: HDX-MS
[3] = molecular target: Elongin BC complex (Homo sapiens) (UniProt Q15370); assay: ITC; conditions: cited from earlier work

For “Elongin BC complex (human Elongin B with Elongin C residues 17-122) (from UniProt Q15370 1-118)”, the fold reduction of binding versus wt Vif [1] was 3 fold.

“Full length HIV-1 Vif (HXB2) (from UniProt P69723) (natural protein)” showed a Kd [2] of 1.9 µM and a stoichiometry N [2] of 1.

“HIV-1 Vif (HXB2) L145A (from UniProt P69723) (natural protein)” gave a Kd [2] of 3.9 µM.

In the case of Vif 130-180 (from UniProt P69722), the Kd [3] is listed as 1.19 µM.

For Vif 139-192 (from UniProt P69722), the Kd [3] is given as 0.0004 µM.
